According to the supplement of paper PMC7877785:
± gives the uncertainty stated by the source.

Test: self-splicing fitness, log relative to wild type (ln ratio); higher = more splicing; Tetrahymena group I intron in knt gene, E. coli kanamycin selection, DiMSum; sequences stand for … in CUCUCU…GGAGGGAAAAGUUAUCAGGCAUGCACCUGGUAGCUAGUCUUUAAACCAAUAGAUUGCAUCGGUUUAAAAGGCAAGACCGUCAAAUUGCGGGAAAGGGGUCAACAGCCGUUCAGUACCAAGUCUCAGGGGAAACUUUGAGAUGGCCUUGCAAAGGGUAUGGUAAUAAGCUGACGGACAUGGUCCUAACCACGCAGCCAAGUCCUAAGUCAACAGAUCUUCUGUUGAUAUGGAUGCAGUUCACAGACUAAAUGUCGGUCGGGGAAGAUGUAUUCUUCUCAUAAGAUAUAGUCGGACCUCUCCUUAAUGGGAGCUAGCGGAUGAAGUGAUGCAACACUGGAGCCGCUGGGAACUAAUUUGUAUGCGAAAGUAUAUUGAUUAGUUUUGGAGUACUCGUGGUCG
Outline: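 Pooled colonies went to amplicon sequencing on an Illumina HiSeq 2500 after six replicate transformations. The plates were LB agar with 100 μg/mL carbenicillin, 50 μM IPTG and 0.2% rhamnose, with or without 25 μg/mL kanamycin, incubated overnight at 37°C or 30°C. The E. coli BL21(DE3) library had all eight P1ex-region intron nucleotides randomised, the intron placed in the knt kanamycin-resistance gene on pET-22b(+). DiMSum fitness is the error-weighted combination of replicate fold changes, kanamycin against none, normalised to wild type.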

Row | Sequence | self-splicing fitness (ln) (30 °C) | self-splicing fitness (ln) (37 °C)
1 | CCCCAGCAAUAUUACGCAGA | -4.17 ± 0.28 | -3.54 ± 0.21
2 | UCUGAGCAAUAUUACGCCGG | -1.96 ± 0.22 | -0.975 ± 0.24
3 | AAAGAGCAAUAUUACGAGUA | -3.87 ± 0.46 | -2.58 ± 0.28
4 | CUUCAGCAAUAUUACGUGAC | -4.76 ± 0.46 | -3.05 ± 0.37
5 | GACGAGCAAUAUUACGGGCA | -1.58 ± 0.18 | -2.56 ± 0.29
6 | CGCUAGCAAUAUUACGUUGC | -3.3 ± 0.33 | -2.98 ± 0.29
7 | AAGCAGCAAUAUUACGCACG | -1.15 ± 0.079 | -0.574 ± 0.095
8 | AAGUAGCAAUAUUACGUCCU | -0.128 ± 0.11 | 0.294 ± 0.14
9 | GAGCAGCAAUAUUACGUGGU | -3.66 ± 0.25 | -2.25 ± 0.23
10 | GACGAGCAAUAUUACGAAAA | – | -3.07 ± 0.37
11 | CCAUAGCAAUAUUACGGUCG | -0.61 ± 0.069 | -0.291 ± 0.095
12 | UGUUAGCAAUAUUACGUGUC | -3.15 ± 0.33 | -1.48 ± 0.28
13 | GGCAAGCAAUAUUACGUUUU | -0.0842 ± 0.054 | 0.186 ± 0.082
14 | UCCCAGCAAUAUUACGGGGU | -3.87 ± 0.27 | -2.86 ± 0.22
15 | UCUUAGCAAUAUUACGUCAA | -2.43 ± 0.25 | -2.6 ± 0.44
16 | UCGUAGCAAUAUUACGCGAA | -2.68 ± 0.23 | -0.932 ± 0.19
17 | ACAGAGCAAUAUUACGGUUC | -3.68 ± 0.23 | -2.16 ± 0.22
18 | AGGGAGCAAUAUUACGACUU | -1.41 ± 0.18 | 0.0129 ± 0.18
19 | GGUUAGCAAUAUUACGCUUG | -2.32 ± 0.15 | -1.82 ± 0.2
20 | ACUAAGCAAUAUUACGAGUC | -3.83 ± 0.42 | -2.73 ± 0.2
21 | CAUAAGCAAUAUUACGACUA | -1.94 ± 0.095 | -0.427 ± 0.078
22 | UACAAGCAAUAUUACGGGCU | -4.2 ± 0.34 | -2.82 ± 0.18
23 | GUCGAGCAAUAUUACGGGGA | -2.91 ± 0.3 | -1.39 ± 0.24
24 | UAGCAGCAAUAUUACGACUA | 0.282 ± 0.1 | 0.568 ± 0.13
25 | AGUGAGCAAUAUUACGCCAG | – | -2.12 ± 0.45

Row | Sequence | self-splicing fitness (ln) (30 °C) | self-splicing fitness (ln) (37 °C)
26 | CACCAGCAAUAUUACGCCUA | -2.37 ± 0.16 | -1.52 ± 0.17
27 | AAAUAGCAAUAUUACGAAUA | -1.7 ± 0.16 | -1.18 ± 0.15
28 | CGUAAGCAAUAUUACGUCAA | -2.62 ± 0.26 | -1.56 ± 0.24
29 | ACCCAGCAAUAUUACGCCAG | -3.26 ± 0.21 | -2.55 ± 0.33
30 | CGUGAGCAAUAUUACGCCGU | – | -1.1 ± 0.25
31 | GGGUAGCAAUAUUACGGAUC | 0.0263 ± 0.12 | 0.637 ± 0.17
32 | CAAAAGCAAUAUUACGUUAG | -1.57 ± 0.064 | -0.632 ± 0.084
33 | CCGAAGCAAUAUUACGGUGU | -3.91 ± 0.21 | -2.09 ± 0.14
34 | CACAAGCAAUAUUACGAGCU | -3.48 ± 0.24 | -3.29 ± 0.3
35 | CAGAAGCAAUAUUACGUCGG | -1.61 ± 0.14 | -0.979 ± 0.2
36 | GACCAGCAAUAUUACGAUAU | -0.781 ± 0.072 | -0.235 ± 0.086
37 | CACGAGCAAUAUUACGAUAC | -3.07 ± 0.24 | -2.73 ± 0.36
38 | UCUGAGCAAUAUUACGUAAC | -3.44 ± 0.33 | -1.55 ± 0.2
39 | CUCCAGCAAUAUUACGCCUA | -2.87 ± 0.2 | -1.94 ± 0.2
40 | CAGGAGCAAUAUUACGGACG | -0.757 ± 0.1 | -0.376 ± 0.11
41 | CAUUAGCAAUAUUACGUCUA | -2.74 ± 0.17 | -2.2 ± 0.17
42 | UCCUAGCAAUAUUACGACUC | -2.94 ± 0.41 | -2.24 ± 0.36
43 | UAAAAGCAAUAUUACGUAUA | -1.82 ± 0.12 | -0.643 ± 0.12
44 | GGAUAGCAAUAUUACGUGCA | -1.3 ± 0.11 | 0.203 ± 0.12
45 | UGCUAGCAAUAUUACGAUCU | -0.537 ± 0.11 | -0.24 ± 0.1
46 | CUACAGCAAUAUUACGUGUG | -1.63 ± 0.055 | -0.0421 ± 0.061
47 | GAACAGCAAUAUUACGCAGC | -2.2 ± 0.29 | -1.16 ± 0.23
48 | UUGAAGCAAUAUUACGAAAU | -3.51 ± 0.13 | -0.963 ± 0.09
49 | AAUGAGCAAUAUUACGUGCA | -2.95 ± 0.22 | -0.932 ± 0.14
50 | AGCCAGCAAUAUUACGUUUG | -3.47 ± 0.13 | -3.22 ± 0.23

Row | Sequence | self-splicing fitness (ln) (30 °C) | self-splicing fitness (ln) (37 °C)
51 | CGACAGCAAUAUUACGCUUU | -5.56 ± 0.41 | -2.05 ± 0.15
52 | CGGGAGCAAUAUUACGAGAG | -3.34 ± 0.26 | -3.18 ± 0.32
53 | AUGUAGCAAUAUUACGAUGG | -3.4 ± 0.25 | -2.26 ± 0.26
54 | GAACAGCAAUAUUACGGUUA | -0.16 ± 0.059 | -0.275 ± 0.064
55 | AGAGAGCAAUAUUACGGUGG | -2.76 ± 0.23 | -3.44 ± 0.37
56 | GUACAGCAAUAUUACGACAG | -3.31 ± 0.24 | -1.94 ± 0.21
57 | GCAAAGCAAUAUUACGCUGG | -2.41 ± 0.13 | -0.395 ± 0.14
58 | GGACAGCAAUAUUACGCUUA | -0.319 ± 0.08 | 0.1 ± 0.1
59 | GGCCAGCAAUAUUACGAGUA | -2.59 ± 0.12 | -2.05 ± 0.12
60 | GCGGAGCAAUAUUACGUCGG | -2.62 ± 0.12 | -1.78 ± 0.17
61 | GUACAGCAAUAUUACGUAGG | -2.79 ± 0.15 | -0.471 ± 0.12
62 | CCAGAGCAAUAUUACGUCGG | -4.42 ± 0.17 | -2.2 ± 0.13
63 | GGACAGCAAUAUUACGUGGU | -2.9 ± 0.12 | -1.08 ± 0.11
64 | UGCAAGCAAUAUUACGCGCC | -1.18 ± 0.098 | -0.427 ± 0.11
65 | ACCGAGCAAUAUUACGGUUC | -3.5 ± 0.43 | –
66 | GCGUAGCAAUAUUACGAUUC | -0.141 ± 0.098 | -0.0224 ± 0.11
67 | CAAAAGCAAUAUUACGGCGG | -0.363 ± 0.061 | -0.395 ± 0.079
68 | UUACAGCAAUAUUACGUCGG | -1.24 ± 0.08 | -0.125 ± 0.087
69 | GCUCAGCAAUAUUACGAUGG | -1.05 ± 0.11 | 0.368 ± 0.13
70 | UAUAAGCAAUAUUACGGAUA | -0.466 ± 0.13 | -0.208 ± 0.13
71 | UUCUAGCAAUAUUACGACGC | -2.76 ± 0.44 | –
72 | AGCUAGCAAUAUUACGCGCA | -0.216 ± 0.095 | 0.0846 ± 0.13
73 | UGCCAGCAAUAUUACGGUGG | -3.29 ± 0.13 | -2.97 ± 0.21
74 | CGCAAGCAAUAUUACGCGUC | -3.7 ± 0.37 | -3.31 ± 0.35
75 | CACUAGCAAUAUUACGUAAC | -3.68 ± 0.27 | -1.88 ± 0.24

Row | Sequence | self-splicing fitness (ln) (30 °C) | self-splicing fitness (ln) (37 °C)
76 | GUUGAGCAAUAUUACGGCUA | -0.763 ± 0.18 | -0.798 ± 0.19
77 | GUCAAGCAAUAUUACGCAGU | -3.31 ± 0.33 | -1.16 ± 0.19
78 | AGCGAGCAAUAUUACGCGCU | -1.6 ± 0.23 | –
79 | GGAUAGCAAUAUUACGGCAC | -1.16 ± 0.14 | -0.0176 ± 0.17
80 | UGUAAGCAAUAUUACGCCAU | -3.9 ± 0.27 | -3.35 ± 0.3
81 | AAGCAGCAAUAUUACGAGCC | -3.37 ± 0.34 | -1.2 ± 0.24
82 | GAGGAGCAAUAUUACGACUC | -3.04 ± 0.27 | -2.25 ± 0.31
83 | CCCCAGCAAUAUUACGUGGA | -3.09 ± 0.086 | -1.23 ± 0.068
84 | GAUGAGCAAUAUUACGUAUA | – | -1.82 ± 0.35
85 | GACUAGCAAUAUUACGUGCA | -0.898 ± 0.059 | -0.504 ± 0.068
86 | AUCGAGCAAUAUUACGGCUU | -3.88 ± 0.3 | -2.58 ± 0.29
87 | GGCGAGCAAUAUUACGCCCA | -2.15 ± 0.42 | -0.478 ± 0.33
88 | CAACAGCAAUAUUACGAAUG | -1.04 ± 0.058 | -0.229 ± 0.074
89 | AAUGAGCAAUAUUACGUGAG | -3.5 ± 0.23 | -1.78 ± 0.14
90 | AACCAGCAAUAUUACGCCUA | -0.252 ± 0.076 | -0.557 ± 0.086
91 | ACACAGCAAUAUUACGUCUU | -1.17 ± 0.046 | 0.012 ± 0.058
92 | UUACAGCAAUAUUACGUCAU | -3.77 ± 0.2 | -1.18 ± 0.12
93 | UGUUAGCAAUAUUACGCACG | -0.922 ± 0.11 | -0.377 ± 0.12
94 | ACGAAGCAAUAUUACGGAGG | -2.97 ± 0.16 | -1.69 ± 0.14
95 | UAUUAGCAAUAUUACGCGUU | -3.05 ± 0.19 | -0.613 ± 0.15
96 | UAACAGCAAUAUUACGGACA | -0.353 ± 0.085 | -0.527 ± 0.1
97 | UACUAGCAAUAUUACGCGUA | -2.63 ± 0.22 | -2.33 ± 0.23
